From publication PMC9574934, “Targeting the Phosphatidylserine-Immune Checkpoint with a Small-Molecule Maytansinoid Conjugate” (Journal of Medicinal Chemistry, 2022)
Entries after “also recorded” stand apart in the source; their conditions may differ.

How the values were obtained:
[1] = Single intravenous dose pharmacokinetic study
Procedure: (§1) Six-week-old male ICR mice, from the Biolasco Taiwan, were divided into groups of three and dosed at 5 mg/kg intravenously. Blood samples were drawn from each animal at time points of 0.003, 0.083, 0.25, 0.5, 1, 2, 4, 6, 8, and 24 h and stored on ice (0–4 °C). With centrifugation (3000 rpm for 15 min at 4 °C in a Beckman Model Allegra 6R centrifuge), plasma was separated from the blood and stored in frozen conditions (−20 °C). […] The mice were sacrificed, and the blood samples of 0.5 mL each and tumor samples were collected at 0.5, 2, 6, 24, 72, and 168 h after administration. Each time point group included 4 mice. Mouse blood samples were collected in EDTA tubes and centrifuged at 13,000 rpm for 5 min at 4°C for plasma collection. Plasma and the harvested tumor samples were stored at −80°C until use. Fifty microliters of mouse plasma or the sample of tumor homogenated in ddH2O with dilution ratio of 1:3 (w/v) by MiniBeadbeater-16 (BioSpec Products Inc., OK, USA) was mixed with 100 μL of acetonitrile containing 250 ng/mL BPR0L187. The mixture was vortexed for 30 s and then centrifuged at 15000g for 20 min. The supernatant was transferred to a clean tube, and 15 μL of the supernatant was injected onto LC/MS/MS. Plasma samples were analyzed by liquid chromatography tandem mass spectrometry (LC/MS/MS). The chromatographic system Agilent 1200 series LC system and an Agilent ZORBAX Eclipse XDB-C8 column (5 μm, 3.0 × 150 mm) interfaced to an MDS Sciex API4000 tandem mass spectrometer equipped with an ESI in the positive scanning mode at 600 °C was used. Data acquisition was collected via multiple reactions monitoring (MRM). A gradient system was employed for the separation of analyte and IS. Mobile phase A was 10 mM ammonium acetate aqueous solution containing 0.1% formic acid. Mobile phase B was acetonitrile. The gradient profile was as follows: 0.0–1.1 min, 50% B; 1.2–3.7 min, 55%B–90%B; 3.8–5.0 min, 90%B–50%B. The flow rate was 1.5 mL/min. The autosampler was programmed to inject 15 μL of the sample every 5 min.

[2] = Procedure: as §1, with “The chromatographic system Agilent 1200 series LC system and an Agilent ZORBAX Eclipse XDB-C8 column (5 μm, 3.0 × 150 mm) interfaced to an MDS Sciex API4000 tandem mass spectrometer equipped with an ESI in the positive scanning mode at 600 °C was used. Data acquisition was collected via multiple reactions monitoring (MRM). A gradient system was employed for the separation of analyte and IS. Mobile phase A was 10 mM ammonium acetate aqueous solution containing 0.1% formic acid. Mobile phase B was acetonitrile. The gradient profile was as follows: 0.0–1.1 min, 50% B; 1.2–3.7 min, 55%B–90%B; 3.8–5.0 min, 90%B–50%B. The flow rate was 1.5 mL/min. The autosampler was programmed to inject 15 μL of the sample every 5 min.” left out
[3] = Plasma incubation and tumor homogenate cleavage of conjugate; assay type: in vitro ADME
Description: Figure 3 In vivo targeting ability, plasma stability, and in vivo biodistribution of modified zinc dipicolylamine conjugates in subcutaneous HCC1806 tumor xenografts. […] (B) In vivo detection of PS-expression in the HCC1806 tumor xenograft model. Representative IVIS images of new Zn11-794 fluorescence probe in mice.

[4] = test system: MIA PaCa-2 human xenografts; assay: MIA PaCa-2 xenograft antitumor efficacy; conditions: 1 mg/kg intravenously twice weekly for two weeks (Figure 4)
Procedure: (§2) Cancer cells, suspending in phenol red free medium/DPBS, were mixed with Matrigel (356237, BD Biosciences, San Jose CA, USA) in a 1:1 ratio. Human pancreatic cancer MIA PaCa-2 (1 × 10^6 cells) or triple-negative breast cancer HCC1806 (1 × 10^6cells) cells were subcutaneously inoculated to left flanks of male nude mice 6 weeks old (Biolasco, Taiwan) or female nude mice 6 weeks old by using a 1 mL syringe (needle 24G × 1 in., 0.55 × 25 mm; TERUMO). Tumor dimensions were measured twice a week with an electronic caliper (FOW54-200-777, PRO-MAX, Newton, Massachusetts, USA), and the volume of the subcutaneously growing tumor in mm^3 was calculated by the following formula: volume = (length × width[2])/2. Conjugates were formulated 10% DMA/20% Cremophor EL/70% injectable solution of 5% dextrose (D5W) for treating MIA PaCa-2 and HCC1806 xenograft tumors. […] Body weight of the mice and tumor volume were measured twice weekly.

[5] = test system: HCC1806 triple-negative breast cancer (TNBC) xenografts
Procedure: as §2

[6] = test system: HCC tumor microenvironment; conditions: HCC model
Procedure: (§3) In addition, a previously reported oncogene-induced, sorafenib-resistant HCC mouse model[50] was used in the current study to examine the antitumor activities of synthesized compounds. Male C57BL/6j mice 4–5 weeks old were purchased from the National Laboratory Animal Center (Taipei, Taiwan) and kept in the laboratory animal center (LAC) of NHRI. The mice received 2 μg of pCMV(CAT)T7-SB100 (Addgene #34879), 10 μg of pT/Caggs-NRASV12 (Addgene #20205), and 10 μg of pKT2/CLP-AKT-LUC plasmids through hydrodynamic injection and were monitored for tumor growth weekly using IVIS until the development of HCC in the liver. The animal study was reviewed and approved by the NHRI IACUC (Institutional Animal Care and Use Committee). HCC-bearing mice with the total flux from IVIS imaging above 1 × 10^9 photons/s were used for treatment of conjugates. […] Repetitive IVIS imaging was performed to track tumor progression, and tumor tissues of the treated HCC-bearing mice were collected at day 3, day 7, and day 14 post conjugate administrations for histological examination and RNA extraction. The tumor tissues of vehicle-treated HCC-bearing mice were collected at day 14 post treatment to serve as control samples.

[7] = test system: sorafenib-resistant hepatocellular carcinoma (HCC) model
Procedure: as §3

[8] = rats, 1 mg/kg i.v. once a week for 4 weeks
Procedure: The animal body weights were measured daily during the study period. At the end of the study on day 29, all the animals were euthanized with 100% CO2 and sacrificed for organ harvest followed by organ weight measurements and for blood sample collection followed by hematology and serum chemistry assays. Hematology and serum chemistry parameters were determined using a HEMAVET 950 automated analyzer (Drew Scientific, Santa Clara, CA, USA) and a FUJI DRI-CHEM NX500 automated analyzer (FUJIFILM, Tokyo, Japan), respectively.

[9] = test system: immunogenic gene expression in the TME; conditions: treated HCC tumor tissue vs vehicle
Procedure: as §3
The concentration (absorbance at 260 nm) and purity (A260/280 and A260/230 ratios) of the extracted RNA were measured by spectrophotometry, and the integrity of the RNA was further determined by a 2100 Bioanalyzer system (Agilent Technologies). The RNA, hybridized with barcoded probes (NanoString Technologies) provided in the nCounter Mouse PanCancer Immune Profiling panel kit, was then used for measurement of the mRNA expression of 770 genes related to immune responses. Nanostring nSolver 4.0 and nCounter advanced analysis 2.0 software (NanoString Technologies) were used for data processing, immune cell profiling, and pathway scoring according to developer’s instructions.

[10] = test system: ovarian, skin, and oral cancer cell lines; conditions: Figure S2

SMILES: CCCCCC(=O)Nc1cccc(CN(Cc2cc(CN(Cc3ccccn3)Cc3cccc(NC(=O)CCCCC)n3)cc(OCCCCN(Cc3ccc(-c4ccccc4)cc3)C(=O)COCCOCCOCC(=O)NCc3ccc(CNC(=O)CCSSCCC(=O)N(C)[C@@H](C)C(=O)O[C@H]4CC(=O)N(C)c5cc(cc(OC)c5Cl)C/C(C)=C/C=C\[C@@H](OC)[C@@]5(O)C[C@H](OC(=O)N5)[C@@H](C)[C@@H]5O[C@@]45C)cc3)c2)Cc2ccccn2)n1.O=[N+]([O-])[O-].O=[N+]([O-])[O-].O=[N+]([O-])[O-].O=[N+]([O-])[O-].[Zn+2].[Zn+2] [Compound 40a]
- decrease in volume distribution (Vss) ([1]; 40a compared with conjugates 30 and 36): 5 fold
- AUC(0-24 hr) Conjugate ([1]; intact conjugate, male ICR mice, 5 mg/kg intravenous): 105,599 ng/mL*hr
- CL ([1]; male ICR mice, 5 mg/kg intravenous, n = 3): 0.9 mL/min/kg
- Vss ([1]; male ICR mice, 5 mg/kg intravenous, n = 3, 5 mg/kg): 0.1 L/kg
- AUC(0-24 hr) Drug ([1]; released payload 14, male ICR mice, 5 mg/kg intravenous of conjugate): 305 ng·h/mL
- plasma stability in vivo, detection of released 14 ([2]; plasma of HCC1806 tumor-bearing mice): negligible detection of 14
- 14 released from 40a in the tumor mass ([2]; tumor tissue of HCC1806 tumor-bearing mice): significant time-dependent increase
- stability in plasma incubation ([3]; plasma): stable
- cleavage with tumor homogenates ([3]; tumor homogenate): readily cleaved
- antitumor efficacy [4]: potent antitumor efficacies; also recorded: potent and lasting anti-MIA PaCa-2 activity
- body weight change during treatment [4]: without apparent body weight loss
- antitumor efficacy against HCC1806 TNBC xenografts ([5]; intravenous twice per week (Figure 4B)): potent antitumor efficacy
- efficacy on larger HCC1806 tumors ([5]; larger (400–800 mm^3) tumors, 2.5 mg/kg once per week for three weeks): potent efficacies and shrinkage
- Ki67 expression in treated tumors ([6]; 1 mg/kg i.v.): reduction
- infiltration of Gr-1+ monocytes and polymorphonuclear granulocytes and F4/80+ macrophages ([6]; IHC staining): increased infiltration
- cytotoxic CD8+ T-cell infiltration ([6]; days 3, 7, and 14): significant increase
- tumor burden by bioluminescence ([7]; 1 mg/kg i.v. twice weekly for two weeks): significant decrease
- activity against HCC tumor growth ([7]; 1 mg/kg injected twice weekly for two weeks): potent activity
- total liver weight ([7]; 14 days after treatment): marked reduction
- BUN and creatinine levels [8]: normal
- GOT and GPT [8]: slightly increased (not significant)
- hematologic (leukocyte, neutrophil, lymphocyte, and platelet) parameters [8]: normal
- organ weights (liver and kidneys) [8]: did not alter organ weights
- gene expression of CCL2 [9]: significantly elevated
- gene expression of CCL5 and CXCL10 [9]: Significant increases
- gene expression of STAT1 [9]: significantly elevated
- T-cell, macrophage, NK cell, chemokine and receptor functions and inflammation score (gene set analysis) ([9]; n = 3): striking elevations
- potency against ovarian, skin, and oral cancer cell lines [10]: highly potent
